Data on four molecules can be found in patent US8951758B2, “GH61 glycoside hydrolase protein variants and cofactors that enhance GH61 activity” (Codexis, Inc., priority 2011, dated 2015).

The test system of test [1] is pretreated corn stover (PCS). Nature of the test: Supplementation of CF-416 whole cellulase broth with single purified enzymes, saccharification of pretreated corn stover. In kind it is biochemical. The note with it: 0.4% single enzyme added to 0.5% CF-416 whole cellulase broth base; 74 g/L glucan, pH 5.0, 55° C., 50 μM copper. The protocol: (§1) In this Example, M. thermophila-produced and purified GH61a, GH61p, GH61f, GH61n, CBH1a, CBH2b, AXE3, FAE, and Xyl3, were used to supplement the activity present in culture broths (i.e., “whole broth cellulase base”) of the M. thermophila strain CF-416 prepared using standard methods known in the art. The broth cellulase base was fixed to 0.5% protein and the single purified enzyme was added at 0.4% (wt added protein/wt glucan) to the saccharification reactions. The whole cellulase broth base and individual enzymes were characterized by standard BCA assays for total protein quantification.
(§2) The saccharification reactions were carried out at 74 g/L glucan load of pretreated wheat straw (PWS) or pretreated corn stover (PCS) at pH 5.0, 55° C. at 950 rpm in the presence of 50 μM copper in high throughput (HTP) 96 deep well plates. Glucose analysis was carried out by the glucose oxidase assay as described above. In each case, the fold improvement was calculated using the formula Fold Improvement=[Total Glucose Production with addition of 0.4% single enzyme to the whole cellulase broth base]/[glucose production from the 0.5% whole cellulase broth base]. In this Table, the fold improvements were ranked from 0 to 3; fold improvements less than 1.2× are indicated by “0,” fold improvements of >1.2 to <1.5 are indicated by “1,” fold improvements of ≧1.5× to <1.7× improvements are indicated by “2,” and fold improvements ≧1.7 are indicated by “3.”

Test [2] has as its system pretreated wheat straw (PWS). Put plainly: Supplementation of CF-416 whole cellulase broth with single purified enzymes, saccharification of pretreated wheat straw. It counts as biochemical. The note with it: 0.4% single enzyme added to 0.5% CF-416 whole cellulase broth base; 74 g/L glucan, pH 5.0, 55° C., 50 μM copper. The procedure:
as §1, §2

B1: AXE3: wild-type M. thermophila acetylxylan esterase (SEQ ID NO:167) (protein, listed as Myceliophthora thermophila)
chain: MKLLGKLSAALALAGSRLAAAHPVFDELMRPTAPLVRPRAALQQVTNFGSNPSNTKMFIYVPDKLAPNPPIIVAIHYCTGTAQAYYSGSPYARLADQKGFIVIYPESPYSGTCWDVSSRAALTHNGGGDSNSIANMVTYTLEKYNGDASKVFVTGSSSGAMMTNVMAAAYPELFAAGIAYSGVPAGCFYSQSGGTNAWNSSCANGQINSTPQVWAKMVFDMYPEYDGPRPKMQIYHGSADGTLRPSNYNETIKQWCGVFGFDYTRPDTTQANSPQAGYTTYTWGEQQLVGIYAQGVGHTVPIRGSDDMAFFGL
For B1, in test [1], the “Fold Improvement Over Whole Cellulase Broth Tested on PCS” value was 0 (fold improvements less than 1.2×). For the same molecule, the “Fold Improvement Over Whole Cellulase Broth Tested on PWS” value in test [2] was 1 (fold improvements of >1.2 to <1.5).

B2: GH61f: M. thermophila GH61f (SEQ ID NO:29) (protein, listed as Myceliophthora thermophila)
chain: MKSFTLTTLAALAGNAAAHATFQALWVDGVDYGAQCARLPASNSPVTDVTSNAIRCNANPSPARGKCPVKAGSTVTVEMHQQPGDRSCSSEAIGGAHYGPVMVYMSKVSDAASADGSSGWFKVFEDGWAKNPSGGSGDDDYWGTKDLNSCCGKMNVKIPADLPSGDYLLRAEALALHTAGSAGGAQFYMTCYQLTVTGSGSASPPTVSFPGAYKATDPGILVNIHAPLSGYTVPGPAVYSGGSTKKAGSACTGCESTCAVGSGPTATVSQSPGSTATSAPGGGGGCTVQKYQQCGGQGYTGCTNCASGSTCSAVSPPYYSQCV
For the molecule B2, the “Fold Improvement Over Whole Cellulase Broth Tested on PCS” value in test [1] is given as 1 (fold improvements of >1.2 to <1.5). Besides, the “Fold Improvement Over Whole Cellulase Broth Tested on PWS” value in test [2] is 1 (fold improvements of >1.2 to <1.5).

B3: GH61n: M. thermophila GH61n (SEQ ID NO:62; alternative SEQ ID NO:64) (protein, listed as Myceliophthora thermophila)
chain: MTKNAQSKQGVENPTSGDIRCYTSQTAANVVTVPAGSTIHYISTQQINHPGPTQYYLAKVPPGSSAKTFDGSGAVWFKISTTMPTVDSNKQMFWPGQNTYETSNTTIPANTPDGEYLLRVKQIALHMASQPNKVQFYLACTQIKITGGRNGTPSPLVALPGAYKSTDPGILVDIYSMKPESYQPPGPPVWRG
Regarding B3, the “Fold Improvement Over Whole Cellulase Broth Tested on PCS” value in test [1] was 1 (fold improvements of >1.2 to <1.5). Further, the “Fold Improvement Over Whole Cellulase Broth Tested on PWS” value in test [2] was 1 (fold improvements of >1.2 to <1.5).

B4: CBH2b: wild-type M. thermophila CBH2b (SEQ ID NO:137) (protein, listed as Myceliophthora thermophila)
chain: MAKKLFITAALAAAVLAAPVIEERQNCGAVWTQCGGNGWQGPTCCASGSTCVAQNEWYSQCLPNSQVTSSTTPSSTSTSQRSTSTSSSTTRSGSSSSSSTTPPPVSSPVTSIPGGATSTASYSGNPFSGVRLFANDYYRSEVHNLAIPSMTGTLAAKASAVAEVPSFQWLDRNVTIDTLMVQTLSQVRALNKAGANPPYAAQLVVYDLPDRDCAAAASNGEFSIANGGAANYRSYIDAIRKHIIEYSDIRIILVIEPDSMANMVTNMNVAKCSNAASTYHELTVYALKQLNLPNVAMYLDAGHAGWLGWPANIQPAAELFAGIYNDAGKPAAVRGLATNVANYNAWSIASAPSYTSPNPNYDEKHYIEAFSPLLNSAGFPARFIVDTGRNGKQPTGQQQWGDWCNVKGTGFGVRPTANTGHELVDAFVWVKPGGESDGTSDTSAARYDYHCGLSDALQPAPEAGQWFQAYFEQLLTNANPPF
B4: the “Fold Improvement Over Whole Cellulase Broth Tested on PCS” value in test [1] is reported as 1 (fold improvements of >1.2 to <1.5). Moreover, the “Fold Improvement Over Whole Cellulase Broth Tested on PWS” value in test [2] is on record as 1 (fold improvements of >1.2 to <1.5).
